Test results published in the RNAGym collection of RNA variant scans (doi:10.7554/elife.80360).

B1: HDV Ribozyme (parent)
chain: GGCCGGCAUGGUCCCAGCCUCCUCGCUGGCGCCGGCUGGGCAACAUUCCGAGGGGACCGUCCCCUCGGUAAUGGCGAAUGGGACCCA

Variants of: B1
Test: self-cleavage, relative activity (ratio to wild type); higher = more cleavage; co-transcriptional

Row | Variant | self-cleavage
1 | C41G U79A | 0.59
2 | C41G U79G | 0.302
3 | C41G U79C | 0.35
4 | C41U U72G | 0.534
5 | C41U U72A | 0.656
6 | C41U U72C | 0.375
7 | C41G C64A | 0.853
8 | C41G C64U | 0.853
9 | A42C G73U | 0.0791
10 | A42C C44U | 0.161
11 | A42C C44A | 0.285
12 | C41G U46A | 0.293
13 | C41G U46C | 0.297
14 | A42C A51C | 0.0594
15 | A42G U46G | 0.0875
16 | A42G G55U | 0.354
17 | A42U G53U | 0.698
18 | A42U G53C | 0.437
19 | C41G C61U | 0.886
20 | C41U C48A | 1.07
21 | A42U A71C | 0.342

Row | Variant | self-cleavage
22 | A42U A71G | 0.431
23 | A42G C63A | 0.359
24 | A42G C63G | 0.504
25 | A42G C63U | 0.633
26 | A42G G59C | 0.703
27 | A42U A51U | 0.509
28 | A42U A51G | 0.508
29 | A42C C48A | 0.361
30 | A42C C48U | 0.26
31 | C41U G80A | 0.283
32 | A42U A78G | 0.264
33 | A42G C86A | 0.697
34 | A42G C86U | 0.697
35 | A42G C86G | 0.597
36 | A42C G80A | 0.234
37 | A42C G80U | 0.219
38 | A42C C58A | 0.364
39 | C41U C57U | 1.12
40 | A42G U69C | 0.462
41 | A42C U79G | 0.151
42 | A42U C44A | 0.688

Row | Variant | self-cleavage
43 | C41G G52C | 0.509
44 | A42C G55A | 0.578
45 | C41U C66A | 0.719
46 | C41U C66U | 1
47 | A42U C61U | 0.445
48 | A42U C61A | 0.47
49 | A42U C61G | 0.77
50 | A42U A83C | 0.119
51 | A42U A83G | 0.177
52 | A42U A83U | 0.142
53 | A42C A77G | 0.156
54 | A42G C66U | 0.591
55 | C41U A87C | 1.09
56 | C41U A87G | 0.961
57 | C41U C61U | 0.946
58 | A42G G76C | 0.672
59 | A42G G76U | 0.782
60 | A42C U47A | 0.0594
61 | C41U C62A | 1.02
62 | C41G U47G | 0.598
63 | C41G U47C | 0.633

Row | Variant | self-cleavage
64 | A42G A71U | 0.502
65 | A42G C64U | 0.45
66 | C41G G53C | 0.658
67 | C41G G53U | 0.53
68 | A42C U69A | 0.156
69 | A42U C58G | 0.443
70 | A42U C58A | 0.481
71 | A42U C58U | 0.271
72 | A42G A83U | 0.185
73 | A42G A83C | 0.119
74 | A42G A45U | 0.598
75 | A42G A45G | 0.383
76 | C41U G76A | 0.95
77 | C41U U47A | 0.96
78 | A42U A70G | 0.571
79 | A42U A70C | 0.636
80 | A42U G82C | 0.264
81 | A42U G82U | 0.102
82 | A42G C62U | 0.808
83 | A42G C62A | 0.35
